# Test results reported in patent US20260207767A1 (ANAVEON, published 2026).
# T1: IL-2R CD122-CD132 on Jurkat-PD1+CD122+ cells (UniProt P14784 27-551; P31785 23-369)
# T1 sequence (looked up) 1: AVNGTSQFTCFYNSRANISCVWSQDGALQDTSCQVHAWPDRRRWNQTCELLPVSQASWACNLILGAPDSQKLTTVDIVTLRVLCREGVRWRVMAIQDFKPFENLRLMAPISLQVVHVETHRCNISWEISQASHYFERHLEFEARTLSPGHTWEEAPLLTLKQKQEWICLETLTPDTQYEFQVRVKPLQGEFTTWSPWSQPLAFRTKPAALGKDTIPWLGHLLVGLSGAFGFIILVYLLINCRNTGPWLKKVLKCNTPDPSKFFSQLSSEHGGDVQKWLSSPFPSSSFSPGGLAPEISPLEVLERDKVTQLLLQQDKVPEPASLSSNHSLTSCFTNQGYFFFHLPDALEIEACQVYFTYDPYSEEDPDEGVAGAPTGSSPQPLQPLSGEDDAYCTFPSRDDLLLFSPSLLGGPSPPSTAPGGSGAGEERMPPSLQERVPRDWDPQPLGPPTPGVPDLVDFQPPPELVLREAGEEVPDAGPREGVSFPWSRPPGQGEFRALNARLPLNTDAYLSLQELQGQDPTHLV
# T1 sequence (looked up) 2: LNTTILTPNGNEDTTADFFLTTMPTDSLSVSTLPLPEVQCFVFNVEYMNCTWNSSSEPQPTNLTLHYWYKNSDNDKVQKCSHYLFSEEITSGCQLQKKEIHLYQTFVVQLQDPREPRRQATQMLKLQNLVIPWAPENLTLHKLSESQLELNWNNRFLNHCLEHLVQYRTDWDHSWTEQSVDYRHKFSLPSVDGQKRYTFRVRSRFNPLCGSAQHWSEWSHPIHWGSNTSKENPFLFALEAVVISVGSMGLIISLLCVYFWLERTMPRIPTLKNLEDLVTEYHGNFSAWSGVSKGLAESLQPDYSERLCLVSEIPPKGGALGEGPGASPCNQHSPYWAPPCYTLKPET
# B1: LTJ498 (bispecific antibody, human IgG1, lambda, L234A L235A)
# heavy 1: EVQLLESGGGLVQPGGSLRLSCAASGFTFSINAMTWVRQAPGKGLEWVSTISGSGFSTYYADSLKGRFTISRDNSKNTLYLQMNSLRAEDTAVYYCAKEVYGDYWGQGTLVTVSSASTKGPSVFPLAPSSKSTSGGTAALGCLVKDYFPEPVTVSWNSGALTSGVHTFPAVLQSSGLYSLSSVVTVPSSSLGTQTYICNVNHKPSNTKVDKRVEPKSCDKTHTCPPCPAPEAAGGPSVFLFPPKPKDTLMISRTPEVTCVVVDVSHEDPEVKFNWYVDGVEVHNAKTKPREEQYNSTYRVVSVLTVLHQDWLNGKEYKCKVSNKALAAPIEKTISKAKGQPREPQVYTLPPSREEMTKNQVSLTCLVKGFYPSDIAVEWESNGQPENNYKTTPPVLDSDGSFFLTSKLTVDKSRWQQGNVFSCSVMHEALHNHYTQKSLSLSPGK
# light: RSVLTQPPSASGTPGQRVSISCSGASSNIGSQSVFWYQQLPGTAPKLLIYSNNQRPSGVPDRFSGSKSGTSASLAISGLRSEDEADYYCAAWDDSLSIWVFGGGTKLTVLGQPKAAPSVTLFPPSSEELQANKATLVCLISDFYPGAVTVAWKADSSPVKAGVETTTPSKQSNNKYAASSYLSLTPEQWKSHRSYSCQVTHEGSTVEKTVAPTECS
# heavy 2: AIRLTQSPSSFSASTGDRVTITCKASQSVDYGGGNFHLRPRDLISNINVIVLELKGSETTFMCEYADETATIVEFLNRWITFSQSIISTLTPTSSSTKKTQLQLEHLLLDLQMILNGINNYKNPKLTRMLTFKFYMPKKATELKHLQCLEEELKPLEEVLNLAQSKGGGGDSYMNWYQQKPGKAPKLLIYAASNLESGVPSRFSGSGSGTDFTLTISSLQSEDFATYYCQQSNEDPYTFGGGTKVEIKGGGGSGGGGSGGGGSEVQLVQSGAEVKKPGESLKISCKGSGYAFTNYLIEWVRQMPGKGLEWMGVINPGSGGTNYNEKFKGQVTISADKSISTAYLQWSSLKASDTAMYYCARWRGEGYYAYFDVWGQGTTVTVSSGGGGSGGGGSEVQLLESGGGLVQPGGSLRLSCAASGFTFSINAMTWVRQAPGKGLEWVSTISGSGFSTYYADSLKGRFTISRDNSKNTLYLQMNSLRAEDTAVYYCAKEVYGDYWGQGTLVTVSSASTKGPSVFPLAPSSKSTSGGTAALGCLVKDYFPEPVTVSWNSGALTSGVHTFPAVLQSSGLYSLSSVVTVPSSSLGTQTYICNVNHKPSNTKVDKRVEPKSCDKTHTCPPCPAPEAAGGPSVFLFPPKPKDTLMISRTPEVTCVVVDVSHEDPEVKFNWYVDGVEVHNAKTKPREEQYNSTYRVVSVLTVLHQDWLNGKEYKCKVSNKALAAPIEKTISKAKGQPREPQVYTLPPSREEMTKNQVSLYCLVKGFYPSDIAVEWESNGQPENNYKTTPPVLDSDGSFFLYSKLTVDKSRWQQGNVFSCSVMHEALHNHYTQKSLSLSPGK
# B2: XWY176 (bispecific antibody, human IgG1, kappa, lambda, L234A L235A)
# heavy 1: B1 heavy 1
# light 1: not shown
# heavy 2: EVQLVQSGAEVKKPGESLKISCKGSGYAFTNYLIEWVRQMPGKGLEWMGVINPGSGGTNYNEKFKGQVTISADKSISTAYLQWSSLKASDTAMYYCARWRGEGYYAYFDVWGQGTTVTVSSASTKGPSVFPLAPSSKSTSGGTAALGCLVKDYFPEPVTVSWNSGALTSGVHTFPAVLQSSGLYSLSSVVTVPSSSLGTQTYICNVNHKPSNTKVDKRVEPKSCDKTHTCPPCPAPEAAGGPSVFLFPPKPKDTLMISRTPEVTCVVVDVSHEDPEVKFNWYVDGVEVHNAKTKPREEQYNSTYRVVSVLTVLHQDWLNGKEYKCKVSNKALAAPIEKTISKAKGQPREPQVYTLPPSREEMTKNQVSLYCLVKGFYPSDIAVEWESNGQPENNYKTTPPVLDSDGSFFLYSKLTVDKSRWQQGNVFSCSVMHEALHNHYTQKSLSLSPGK
# light 2: not shown
# B3: YPW986 (bispecific antibody, human IgG1, kappa, L234A L235A)
# heavy 1: EVQLLESGGGLVQPGGSLRLSCAASGFTFSINAMTWVRQAPGKGLEWVSTISGSGFSTYYADSLKGRFTISRDNSKNTLYLQMNSLRAEDTAVYYCAKEVYGDYWGQGTLVTVSSASVAAPSVFIFPPSDEQLKSGTASVVCLLNNFYPREAKVQWKVDNALQSGNSQESVTEQDSKDSTYSLSSTLTLSKADYEKHKVYACEVTHQGLSSPVTKSFNRGECDKTHTCPPCPAPEAAGGPSVFLFPPKPKDTLMISRTPEVTCVVVDVSHEDPEVKFNWYVDGVEVHNAKTKPREEQYNSTYRVVSVLTVLHQDWLNGKEYKCKVSNKALAAPIEKTISKAKGQPREPQVYTLPPSREEMTKNQVSLTCLVKGFYPSDIAVEWESNGQPENNYKTTPPVLDSDGSFFLTSKLTVDKSRWQQGNVFSCSVMHEALHNHYTQKSLSLSPGK
# light 1: RSVLTQPPSASGTPGQRVSISCSGASSNIGSQSVFWYQQLPGTAPKLLIYSNNQRPSGVPDRFSGSKSGTSASLAISGLRSEDEADYYCAAWDDSLSIWVFGGGTKLTVLSSASTKGPSVFPLAPSSKSTSGGTAALGCLVKDYFPEPVTVSWNSGALTSGVHTFPAVLQSSGLYSLSSVVTVPSSSLGTQTYICNVNHKPSNTKVDKRVEPKSC
# heavy 2: B2 heavy 2
# light 2: not shown
# B4: 21A08Q (antibody, V domains shown)
# VH: EVQLLESGGGLVQPGGSLRLSCAASGFTFSINAMTWVRQAPGKGLEWVSTISGSGFSTYYADSLKGRFTISRDNSKNTLYLQMNSLRAEDTAVYYCAKEVYGDYWGQGTLVTVSS
# VL: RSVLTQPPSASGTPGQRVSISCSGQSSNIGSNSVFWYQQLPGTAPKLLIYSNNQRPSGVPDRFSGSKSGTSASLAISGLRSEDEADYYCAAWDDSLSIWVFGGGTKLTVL
# notes: position not given
# B5: 21A08A (antibody, V domains shown)
# VH: B4 VH
# VL: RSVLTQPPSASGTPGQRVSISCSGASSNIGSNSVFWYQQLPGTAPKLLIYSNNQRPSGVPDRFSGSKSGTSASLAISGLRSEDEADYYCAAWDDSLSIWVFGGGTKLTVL
# notes: position not given
# B6: 21A08S (antibody, V domains shown)
# VH: B4 VH
# VL: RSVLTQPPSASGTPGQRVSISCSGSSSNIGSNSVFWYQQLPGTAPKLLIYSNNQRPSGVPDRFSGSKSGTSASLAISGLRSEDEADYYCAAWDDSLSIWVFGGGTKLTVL
# notes: position not given; tested as supernatant
# Legend:
# [1] = target: T1, IL-2R CD122-CD132 on Jurkat-PD1+CD122+ …; experiment: cell-based or functional assay
# [2] = target: T2, recombinant hPD-1 (construct not stated) (human, UniProt Q15116 25-167, limits assumed); experiment: BLI, supernatants
# T2 construct: also called huPD-1; Human PD1
# T2 sequence (Q15116 25-167 limits assumed): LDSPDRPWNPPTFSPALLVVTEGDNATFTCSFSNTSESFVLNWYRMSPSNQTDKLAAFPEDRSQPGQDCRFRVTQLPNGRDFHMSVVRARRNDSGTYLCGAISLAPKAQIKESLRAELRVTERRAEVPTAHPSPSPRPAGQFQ
# From the text: In order to remove an N-glycosylation site present in the CDR-L1, mutations were inserted in the CDR-L1 of 21A08. The first asparagine ([…], N) in CDR-L1, was replaced by a serine (Ser, S), Glutamine (Gln, Q), or Alanine (Ala, A).
# [3] = target: T3, hPD-1 His-tagged (human, UniProt Q15116 25-167); experiment: SPR, Ab captured, PD-1 analyte
# T3 construct: also called recombinant hPD-1 (AcroBio)
# T3 sequence (Q15116 25-167 limits assumed): as above
# Procedure: (§1) 10 mM glycine (pH 1.5) as regeneration buffer was injected to flow cells following every dissociation phase.
# [4] = target: T4, cynoPD-1 His (AcroBiosystems PD1-C5223) (cynomolgus monkey, UniProt B0LAJ3 25-170); experiment: SPR, Ab captured, PD-1 analyte
# T4 construct: also called cPD-1; cynomolgus PD-1 His-tagged
# T4 sequence (B0LAJ3 entry or part of it limits assumed): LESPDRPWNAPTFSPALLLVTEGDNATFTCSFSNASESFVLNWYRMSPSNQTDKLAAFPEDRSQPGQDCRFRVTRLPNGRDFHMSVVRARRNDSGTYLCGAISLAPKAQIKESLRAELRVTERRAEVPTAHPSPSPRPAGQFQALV
# Procedure: as §1
"EC50 value for pSTAT5 induction, Jurkat-PD-1+CD122+ cells [1]",Kd [2],koff [2],also measured,Binder
0.24 nM,,,,B1
0.27 nM,,,,B2
43.9 nM,,,,B3
,3.39 nM,0.000267 s⁻¹,,B4
,1.81 nM,0.000181 s⁻¹,Kd [3]: < 0.16 nM; koff [3]: < 1e-05 s⁻¹; kon [3]: 63000 M⁻¹ s⁻¹; Kd [4]: 1.7 nM; koff [4]: 9.6e-05 s⁻¹; kon [4]: 56000 M⁻¹ s⁻¹,B5
,2.47 nM,0.000184 s⁻¹,,B6
